One data set has as its target T1, TtAT (Thermus thermophilus, UniProt Q75WK2).
T1 construct: gene TthHB5018_10190; C-terminal His6 tag, amplified from genomic DNA, plasmid pET20b-ttGlnAT, expressed in E. coli BL21(DE3), Ni-NTA purified
Put plainly: PLP to PMP conversion, absorbance decrease at […] nm. The format is biochemical. The conditions noted are these: 50 mM HEPES-NaOH pH 8.0, 0.1 M KCl, 25 °C, 20 μM enzyme, no amine acceptor; racemate used as amine donor.

Substrate in data set [1]: N[C@H](Cc1ccc2ccccc2c1)C(=O)O
Description: purified protein. The conditions noted are these: 75 mM phosphate pH 8.5, 1 mM o-dianisidine, 1 U HRP, 25 °C, 11.9 nM enzyme.

Substrate in data set [2]: NC(Cc1ccc(-c2ccccn2)nc1)C(=O)O
Description: purified protein. The format is biochemical, Rhodotorula toruloides. The settings on record: 75 mM phosphate pH 8.5, 1 mM o-dianisidine, 1 U HRP, 25 °C, 119 nM enzyme, racemate used, value calibrated accordingly.

Substrate in data set [3]: NC(Cc1cnc2c(O)cccc2c1)C(=O)O
Put plainly: purified protein. It is filed as biochemical, Rhodotorula toruloides. The settings on record: 75 mM phosphate pH 8.5, 1 mM o-dianisidine, 1 U HRP, 25 °C, 119 nM enzyme, racemate used, value calibrated accordingly.

T1 sequence (Q75WK2 entry or part of it): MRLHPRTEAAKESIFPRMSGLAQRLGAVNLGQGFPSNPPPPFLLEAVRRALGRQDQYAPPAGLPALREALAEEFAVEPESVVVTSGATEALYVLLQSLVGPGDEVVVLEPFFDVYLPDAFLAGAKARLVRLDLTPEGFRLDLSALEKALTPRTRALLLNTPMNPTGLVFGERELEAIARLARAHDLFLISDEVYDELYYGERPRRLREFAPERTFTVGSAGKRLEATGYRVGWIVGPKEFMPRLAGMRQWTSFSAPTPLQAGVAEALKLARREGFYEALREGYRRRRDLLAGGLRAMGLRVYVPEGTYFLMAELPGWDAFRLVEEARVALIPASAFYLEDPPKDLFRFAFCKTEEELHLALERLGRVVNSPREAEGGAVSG

With `NC(Cc1ccc(-c2ccccn2)nc1)C(=O)O` (racemic) [BPA, L-BPA], on TtAT, the “PLP to PMP conversion, absorbance decrease at 430 nm” value was “This result indicates that TtAT recognizes BPA and HQA as substrates”.
With `NC(Cc1cnc2c(O)cccc2c1)C(=O)O` (racemic) [HQA, L-HQA], the “PLP to PMP conversion, absorbance decrease at 430 nm” value at TtAT is “This result indicates that TtAT recognizes BPA and HQA as substrates”.

B1: RgDAAO (Rhodotorula toruloides) (protein)
chain: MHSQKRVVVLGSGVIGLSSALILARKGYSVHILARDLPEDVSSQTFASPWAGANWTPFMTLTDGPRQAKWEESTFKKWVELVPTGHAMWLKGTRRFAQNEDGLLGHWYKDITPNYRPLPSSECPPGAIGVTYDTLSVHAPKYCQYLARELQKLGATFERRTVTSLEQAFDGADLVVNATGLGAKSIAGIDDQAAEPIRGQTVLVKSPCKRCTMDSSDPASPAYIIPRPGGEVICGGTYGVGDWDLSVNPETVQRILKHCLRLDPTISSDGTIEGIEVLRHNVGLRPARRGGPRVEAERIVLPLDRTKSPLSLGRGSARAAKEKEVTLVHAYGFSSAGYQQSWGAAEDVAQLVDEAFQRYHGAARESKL
notes: synthetic gene, N-terminal His6 tag, expressed in E. coli, Ni-NTA purified
As for B1, the figures for the Km in the data set “purified protein [1]”, in the data set “purified protein [2]” and in “purified protein [3]” were 0.052 ± 0.0087 mM, 0.087 ± 0.010 mM and 0.043 ± 0.0094 mM, respectively. Moreover, the kcat in “purified protein [1]” stood at 28.5 s⁻¹; in “purified protein [2]”, 7.47 ± 0.333 s⁻¹; in the data set “purified protein [3]”, 2.067 ± 0.00667 s⁻¹. In addition, the kcat/Km in the data set “purified protein [1]” worked out at 550000 M⁻¹ s⁻¹; in “purified protein [2]”, 86700 M⁻¹ s⁻¹; in the data set “purified protein [3]”, 48300 M⁻¹ s⁻¹.
